Target: S. pombe Dcp2(1–243) (S. pombe) (UniProt O13828)
Chain of UniProt O13828 (O13828 1-243): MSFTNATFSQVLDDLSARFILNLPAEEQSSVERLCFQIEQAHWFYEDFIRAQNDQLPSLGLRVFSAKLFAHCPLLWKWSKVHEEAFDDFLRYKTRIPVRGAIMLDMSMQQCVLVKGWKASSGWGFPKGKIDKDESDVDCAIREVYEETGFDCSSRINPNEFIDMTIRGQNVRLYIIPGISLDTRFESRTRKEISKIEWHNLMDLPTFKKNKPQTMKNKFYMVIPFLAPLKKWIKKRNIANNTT

kmax of single-turnover in vitro decapping of a capped 29-mer RNA by Sp Dcp1–Dcp2(1–243) (m7 in complex with m6), with and without Edc1(155–180) peptide (50 µM): 10 fold
Substance: Sp Edc1 (155–180) peptide

Reference: publication PMC5861098
